US20110243962A1 (GENEURO, published 2011)

T1: MSRV ENV surface domain fragment (ENV-SU), recombinant from E. coli (MSRV (Multiple Sclerosis associated …))
T1 chain: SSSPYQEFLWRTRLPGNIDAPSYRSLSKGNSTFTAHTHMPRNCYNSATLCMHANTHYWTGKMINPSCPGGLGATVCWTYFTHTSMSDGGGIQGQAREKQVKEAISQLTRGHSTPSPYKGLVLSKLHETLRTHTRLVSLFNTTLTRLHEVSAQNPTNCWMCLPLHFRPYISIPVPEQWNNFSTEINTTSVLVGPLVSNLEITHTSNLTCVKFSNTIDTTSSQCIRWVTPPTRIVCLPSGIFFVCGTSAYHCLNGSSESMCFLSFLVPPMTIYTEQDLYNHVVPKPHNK

T2: MSRV complete ENV protein (ENV-T), recombinant from E. coli (MSRV (Multiple Sclerosis associated …))
T2 construct: also called ENV-T 7A; His-ENV-T
T2 chain: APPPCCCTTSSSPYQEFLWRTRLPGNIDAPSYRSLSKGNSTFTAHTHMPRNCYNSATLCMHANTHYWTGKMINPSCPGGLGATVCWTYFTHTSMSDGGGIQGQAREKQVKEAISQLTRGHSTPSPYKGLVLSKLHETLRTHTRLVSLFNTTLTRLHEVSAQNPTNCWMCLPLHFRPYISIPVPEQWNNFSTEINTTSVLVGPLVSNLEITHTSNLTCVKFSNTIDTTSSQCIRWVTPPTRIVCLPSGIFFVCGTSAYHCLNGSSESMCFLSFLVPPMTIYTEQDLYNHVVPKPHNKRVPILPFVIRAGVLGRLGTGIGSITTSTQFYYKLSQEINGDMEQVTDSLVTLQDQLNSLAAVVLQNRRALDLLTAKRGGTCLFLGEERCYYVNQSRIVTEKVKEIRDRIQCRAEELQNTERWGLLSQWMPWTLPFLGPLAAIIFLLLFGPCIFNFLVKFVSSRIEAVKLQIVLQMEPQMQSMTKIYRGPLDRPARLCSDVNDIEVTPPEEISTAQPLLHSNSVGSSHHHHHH


Columns and labels:
[1] = target: T1, MSRV ENV surface domain fragment …; assay: cell-based or functional assay
[2] = target: T2, MSRV complete ENV protein (ENV-T), …; assay: ELISA; ENV 0.25 ug/ml coated; mAb 1 ug/ml
Description: (§1) Protocol: Incubation 2 h at 37° C. […] Revelation is made by adding OPD substrate and reading optic density with a spectrophotometer after 30 min (Washing steps with PBS are performed between every step).

[3] = target: T2, MSRV complete ENV protein (ENV-T), …; assay: ELISA; ENV 0.0078 ug/ml coated; mAb 1 ug/ml
Description: as §1

[4] = target: T2, MSRV complete ENV protein (ENV-T), …; assay: ELISA; ENV 0.0156 ug/ml coated; mAb 1 ug/ml
Description: as §1

[5] = target: T2, MSRV complete ENV protein (ENV-T), …; assay: ELISA; ENV 0.0625 ug/ml coated; mAb 1 ug/ml
Description: as §1

[6] = target: T2, MSRV complete ENV protein (ENV-T), …; assay: ELISA; coated ENV-T 7A 0.5; ligand 1 microgram
Description: (§2) II-1d Direct ELISA on Microplates Coated with ENV Antigen (ENV-T or ENV-SU as Described Above) [0159] Microwells were coated with 100 μl per well of ENV antigen diluted in 50 mM Sodium Bicarbonate, pH 9.6. Plate were sealed and incubated 2 hours at 37° C. under light agitation. [0160] Microwells were washed 4 times with 250 μl per well of PBS (Phosphate Buffer Saline). After the last, plates were inverted and blotted on absorbent paper to remove any residual buffer. [0161] 100 μl per well of detection antibody according to the present invention (GNbAC1 or its Fab fragment) diluted in PBS+BSA 1% (PBS with 1% of Bovine Serum Albumin) were added. Plate were sealed and incubated 1 hour at room temperature under light agitation. […] Microwells were washed 4 times with 250 μl per well of PBS. After the last, plates were inverted and blotted on absorbent paper to remove any residual buffer. [0163] […] Plate were sealed and incubated 1 hour at room temperature under light agitation. [0164] Microwells were washed 6 times with 250 μl per well of PBS. After the last, plates were inverted and blotted on absorbent paper to remove any residual buffer. [0165] 100 μl par well of Substrate Solution (1 tablet of o-Phenylenediamine (OPD) diluted in 10 ml of 0.05M Phosphate Citrate Buffer pH5+10 μl H2O2 30%, prepared at the last moment) were added. Plates were incubated 30 min at room temperature in the dark. […] 50 μl per well of Stop Solution 2N H2SO₄ were added. [0167] The absorbance was read at 490 nm within 30 minutes of stopping reaction.
(§3) Env-T antigen is coated onto microtiter ELISA plate wells with serial dilutions ranging from 1 μg/ml to about 0.01 μg/ml.

[7] = target: T2, MSRV complete ENV protein (ENV-T), …; assay: ELISA; ENV-T 7A 1 ug/ml coated; mAb 0.25 ug/ml
Description: as §1

[8] = target: T2, MSRV complete ENV protein (ENV-T), …; assay: ELISA; ENV-T 7A 1 ug/ml coated; mAb 0.125 ug/ml
Description: as §1

[9] = target: T2, MSRV complete ENV protein (ENV-T), …; assay: ELISA; coated ENV-T 7A 0.125; ligand 1 microgram
Description: as §2, §3

[10] = target: T2, MSRV complete ENV protein (ENV-T), …; assay: ELISA; ENV-T 7A 1 ug/ml coated; mAb 0.0078 ug/ml
Description: as §1

[11] = target: T2, MSRV complete ENV protein (ENV-T), …; assay: ELISA; coated ENV-T 7A 0.0156; ligand 1 microgram
Description: as §2, §3

[12] = target: T2, MSRV complete ENV protein (ENV-T), …; assay: ELISA; coated ENV-T 7A 0.03125; ligand 1 microgram
Description: as §2, §3

[13] = target: T2, MSRV complete ENV protein (ENV-T), …; assay: ELISA; ENV-T 7A 1 ug/ml coated; mAb concentration cell blank (top of series)
Description: as §1

Binder | IFN-gamma Inhibition (%) [1] | IFN-gamma Response (%) [1] | IFN-gamma pg/ml, PBMC 72 h [1] | IL-6 pg/ml, PBMC 72 h [1] | IL-6 Inhibition (%) [1] | IL-6 Response (%) [1] | optic density [2] | optic density [3] | optic density [4] | optic density [5] | optical density [6] | optic density [7] | optic density [8] | optical density [9] | optic density [10] | optical density [11] | optical density [12] | optic density [13]
GNbAC1 murine monoclonal antibody (IgG1/kappa) (antibody, V domains shown, Murine IgG1/kappa from hybridoma; also called murine IgG1; muIgG) VH: QVQLQQSGAELVRPGAPVTLSCKASGYTFTDYEMHWVKQTPVHGLEWIGAVAPETGGTAYNQKFKGKATLTAAKSSSTAYMELRSLTSEDSAVYYCTSTVVPFAYWGQGTLVTVSA VL: QIVLTQSPAIMSASPGEKVTISCSASSSVSYMYWYQQKPGSSPKAWIYRTSNLASGVPGRFSGSGSGTSYSLTISSMEAEDAATYYCQQYQSLPLTFGSGTKLEIK | 52% | 48% | 270 pg/mL | 42200 pg/mL | 52% | 48% | 1.42 OD | 0.111 OD | 0.186 OD | 0.837 OD | 2.9 OD | 1.21 OD | 0.945 OD | 2.29 OD | 0.13 OD | 1.3 OD | 1.34 OD | 2 OD
Chimeric GNb AC1 IgG1 (human IgG1 constant regions with murine VH and VL) (antibody, V domains shown, Human IgG1 heavy constant region and human kappa constant region, made in CHO cells; also called GNbAC1 chimeric IgG1; Ligand in human IgG1) VH: QVQLQQSGAELVRPGAPVTLSCKASGYTFTDYEMHWVKQTPVHGLEWIGAVAPETGGTAYNQKFKGKATLTAAKSSSTAYMELRSLTSEDSAVYYCTSTVVPFAYWGQGTLVTVSA VL: QIVLTQSPAIMSASPGEKVTISCSASSSVSYMYWYQQKPGSSPKAWIYRTSNLASGVPGRFSGSGSGTSYSLTISSMEAEDAATYYCQQYQSLPLTFGSGTKLEIK | -9% | 109% | 606 pg/mL | 32900 pg/mL | 63% | 37% | 2.27 OD | 0.642 OD | 0.888 OD | 1.85 OD | 3 OD | 2.64 OD | 2.44 OD | 2.39 OD | 0.85 OD | 1.26 OD | 1.56 OD | 2.54 OD
Chimeric GNb AC1 IgG4 (human IgG4 constant regions with murine VH and VL) (antibody, V domains shown, also called GNbAC1 chimeric IgG4; GNbAC1-IgC4) VH: QVQLQQSGAELVRPGASVTLSCKASGYTFTDYEMHWVKQTPVHGLEWIGAVAPETGGTAYNQKFKGKATLTAAKSSSTAYMELRSLTSEDSAVYYCTSTVVPFAYWGQGTLVTVSA VL: QIVLTQSPAIMSASPGEKVTISCSASSSVSYMYWYQQKPGSSPKAWIYRTSNLASGVPGRFSGSGSGTSYSLTISSMEAEDAATYYCQQYQSLPLTFGSGTKLEIKR | 43% | 57% | 318 pg/mL | 53000 pg/mL | 40% | 60% | 2.3 OD | 0.313 OD | 0.71 OD | 1.55 OD | 2.89 OD | 2.17 OD | 1.81 OD | 1.99 OD | 0.474 OD | 1.02 OD | 1.37 OD | 2.38 OD
